Assay type in all cases: biochemical, Arabidopsis thaliana
Substrate in data set [1]: OC[C@H]1O[C@H](OC[C@H]2O[C@H](OC[C@H]3O[C@H](O[C@]4(CO)O[C@H](CO)[C@@H](O)[C@@H]4O)[C@H](O)[C@@H](O)[C@@H]3O)[C@H](O)[C@@H](O)[C@H]2O)[C@H](O)[C@@H](O)[C@H]1O
As to the kind of experiment: HPAEC-PAD, raffinose formation. The settings on record: galactosylhydrolase reaction, stachyose alone, range 50 to 1,200 μM, 25 mM K-phosphate pH 7, 25°C, 60 min.

Substrate in data set [2]: OC[C@H]1O[C@H](O[C@@H]2[C@@H](O)[C@H](O)[C@@H](O)[C@H](O)[C@@H]2O)[C@H](O)[C@@H](O)[C@H]1O
As to the kind of experiment: HPAEC-PAD, stachyose formation. The settings on record: stachyose synthase reaction, galactosyl donor, co-substrate raffinose (standard assay 400 μM), range 50 to 1,200 μM, 25 mM K-phosphate pH 7, 25°C, 60 min.

Substrate in data set [3]: OC[C@H]1O[C@H](OC[C@H]2O[C@H](O[C@]3(CO)O[C@H](CO)[C@@H](O)[C@@H]3O)[C@H](O)[C@@H](O)[C@@H]2O)[C@H](O)[C@@H](O)[C@H]1O
As to the kind of experiment: HPAEC-PAD, stachyose formation. The settings on record: stachyose synthase reaction, galactosyl acceptor, co-substrate galactinol (standard assay 100 μM), 25 mM K-phosphate pH 7, 25°C, 60 min.

B1: AtRS4 (AtSTS, AtStaS, At4g01970) (Arabidopsis thaliana) (protein)
chain: MAPLHESLSSINDVIESKPLFVPITKPILQPNSFNLSEGSLCAKDSTPILFDVPQNVTFTPFSSHSISTDAPLPILLRVQANAHKGGFLGFTKESPSDRLTNSLGRFEDREFLSLFRFKMWWSTAWIGKSGSDLQAETQWVMLKIPEIDSYVAIIPTIEGAFRASLTPGEKGNVLICAESGSTKVKESSFKSIAYIHICDNPYNLMKEAFSALRVHMNTFKLLEEKKLPKIVDKFGWCTWDACYLTVDPATIWTGVKEFEDGGVCPKFVIIDDGWQSINFDGDELDKDAENLVLGGEQMTARLTSFKECKKFRNYKGGSFITSDASHFNPLKPKMLIYKATERIQAIILRRKLVKESGEQDLTELDEKIKILSEELNAMFDEVEKEESLGSDDVSGSGMAAFTKDLRLRFKSLDDIYVWHALCGAWNGVRPETMMDLKAKVAPFELSPSLGATMADLAVDKVVEAGIGLVHPSKAHEFYDSMHSYLASVGVTGAKIDVFQTLESLAEEHGGRVELAKAYYDGLTESMIKNFNGTDVIASMQQCNEFFFLATKQISIGRVGDDFWWQDPYGDPQGVYWLQGVHMIHCSYNSIWMGQMIQPDWDMFQSDHVCAEYHAASRAICGGPVYLSDHLGKASHNFDLIKKLAFFDGTIPRCVHYALPTRDSLFKNPLFDKESILKIFNFNKFGGVIGTFNCQGAGWSPEEHRFKGYKECYTTVSGTVHVSDIEWDQNPEAAGSQVTYTGDYLVYKQQSEEILFMNSKSEAMKITLEPSAFDLLSFVPVTELVSSGVRFAPLGLINMFNCVGTVQDMKVTGDNSIRVDVKGEGRFMAYSSSAPVKCYLNDKEAEFKWEEETGKLSFFVPWVEESGGISHLSFTF
As a reminder, the Km is the substrate concentration at which the rate is half of its maximum. Turning to B1, the Km in data set [1] is 1,059 ± 269.3 μM; in data set [2], 1,170 ± 246.8 μM; in data set [3] it was 259.2 ± 21.15 µM.

For the origin of these results see publication PMC4587089, “Molecular cloning of AtRS4, a seed specific multifunctional RFO synthase/galactosylhydrolase in Arabidopsis thaliana” (Frontiers in Plant Science, 2015).
